# Data from PMC9482650, “Quantitative fragmentomics allow affinity mapping of interactomes” (Nature Communications, 2022).
# T1: SHANK1, Q9Y566
# T1 sequence (Q9Y566 658-767, limits assumed, looked up): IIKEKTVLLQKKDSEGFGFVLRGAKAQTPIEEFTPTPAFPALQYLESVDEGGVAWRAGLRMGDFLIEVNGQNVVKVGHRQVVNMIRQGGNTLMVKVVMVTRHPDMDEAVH
# T2: LNX2_3, Q8N448
# T2 sequence (Q8N448 463-564, limits assumed, looked up): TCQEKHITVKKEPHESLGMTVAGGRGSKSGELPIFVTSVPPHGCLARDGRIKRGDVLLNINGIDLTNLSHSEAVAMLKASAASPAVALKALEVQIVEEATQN
# T3: LIN7A, O14910
# T3 sequence (O14910 103-200, limits assumed, looked up): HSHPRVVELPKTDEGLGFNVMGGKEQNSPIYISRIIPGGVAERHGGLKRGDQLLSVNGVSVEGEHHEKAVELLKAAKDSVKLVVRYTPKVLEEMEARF
# T4: MPDZ_12, O75970
# T4 sequence (O75970 1857-1958, limits assumed, looked up): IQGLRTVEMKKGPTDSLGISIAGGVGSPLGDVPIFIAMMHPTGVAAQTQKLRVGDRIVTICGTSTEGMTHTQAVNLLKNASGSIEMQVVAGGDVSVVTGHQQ
# T5: RAPGEF6, Q8TEU7
# T5 sequence (Q8TEU7 525-625, limits assumed, looked up): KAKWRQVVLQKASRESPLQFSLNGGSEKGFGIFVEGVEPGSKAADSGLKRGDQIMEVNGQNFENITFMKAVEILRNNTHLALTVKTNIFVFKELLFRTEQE
# T6: CARD11, Q9BXL7
# T6 sequence (Q9BXL7 662-765, limits assumed, looked up): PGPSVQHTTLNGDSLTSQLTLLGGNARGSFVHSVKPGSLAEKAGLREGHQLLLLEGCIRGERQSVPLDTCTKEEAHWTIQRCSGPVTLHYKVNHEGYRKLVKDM
# T7: NHERF3_4, Q5T2W1
# T7 sequence (Q5T2W1 373-468, limits assumed, looked up): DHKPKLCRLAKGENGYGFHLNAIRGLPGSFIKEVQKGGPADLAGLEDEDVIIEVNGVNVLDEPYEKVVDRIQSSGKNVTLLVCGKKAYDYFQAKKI
# T8: APBA1_2, Q02410
# T8 sequence (Q02410 742-832, limits assumed, looked up): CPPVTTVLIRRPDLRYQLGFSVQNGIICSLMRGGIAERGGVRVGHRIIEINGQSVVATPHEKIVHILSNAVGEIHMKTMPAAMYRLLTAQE
# T9: PDZD2_2, O15018
# T9 sequence (O15018 329-429, limits assumed, looked up): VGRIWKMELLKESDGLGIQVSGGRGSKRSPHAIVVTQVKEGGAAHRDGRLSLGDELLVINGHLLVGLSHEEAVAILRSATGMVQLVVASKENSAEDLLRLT
# Biological target: NHERF4_1, Q86UT5-2
# Sequence (Q86UT5 other isoform, or with tags, fused parts or gaps): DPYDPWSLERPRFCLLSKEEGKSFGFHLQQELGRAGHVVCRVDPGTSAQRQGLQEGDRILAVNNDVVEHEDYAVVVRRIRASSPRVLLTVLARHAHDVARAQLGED
# Test: holdup assay
# Parameters: key: below the threshold = too weak to quantify, mostly under pKd 3.1 to 4
# Settings: plain residues with an end cap or a label only (N-terminal biotin on a linker: ado-ado)
row,pKd,Binder
1,3.49,"SVISRREWYV [NECTIN3, Q9NQS3]"

# Biological target: MAGI2_2, Q86UL8
# Sequence (Q86UL8 410-522): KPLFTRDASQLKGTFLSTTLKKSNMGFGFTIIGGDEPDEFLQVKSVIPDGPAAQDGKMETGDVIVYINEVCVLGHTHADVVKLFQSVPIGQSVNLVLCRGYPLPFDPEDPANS
# Test: holdup assay
# Parameters: key: below the threshold = too weak to quantify, mostly under pKd 3.1 to 4
# Settings: plain residues with an end cap or a label only (N-terminal biotin on a linker: ado-ado)
row,pKd,Binder
1,5.35,"SVISRREWYV [NECTIN3, Q9NQS3]"

# Biological target: GRIP2_6, Q9C0E4
# Sequence (Q9C0E4 648-740): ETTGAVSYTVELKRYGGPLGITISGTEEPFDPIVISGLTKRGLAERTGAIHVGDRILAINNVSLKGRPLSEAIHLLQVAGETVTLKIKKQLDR
# Test: holdup assay
# Parameters: key: below the threshold = too weak to quantify, mostly under pKd 3.1 to 4
# Settings: plain residues with an end cap or a label only (N-terminal biotin on a linker: ado-ado)
row,pKd,Binder
1,4.81,"SVISRREWYV [NECTIN3, Q9NQS3]"

# Biological target: T1, SHANK1, Q9Y566
# Test: holdup assay
# Parameters: key: below the threshold = too weak to quantify, mostly under pKd 3.1 to 4
# Settings: plain residues with an end cap or a label only (N-terminal biotin on a linker: ado-ado)
row,pKd,Binder
1,below the threshold,"SVISRREWYV [NECTIN3, Q9NQS3]"

# Biological target: DLG5_1, Q8TDM6
# Sequence (Q8TDM6 617-713): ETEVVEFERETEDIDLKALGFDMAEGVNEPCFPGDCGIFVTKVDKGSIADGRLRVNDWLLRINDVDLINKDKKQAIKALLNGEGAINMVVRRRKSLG
# Test: holdup assay
# Parameters: key: below the threshold = too weak to quantify, mostly under pKd 3.1 to 4
# Settings: plain residues with an end cap or a label only (N-terminal biotin on a linker: ado-ado)
row,pKd,Binder
1,below the threshold,"SVISRREWYV [NECTIN3, Q9NQS3]"

# Biological target: MAGI1_1, Q96QZ7
# Sequence (Q96QZ7 1-106): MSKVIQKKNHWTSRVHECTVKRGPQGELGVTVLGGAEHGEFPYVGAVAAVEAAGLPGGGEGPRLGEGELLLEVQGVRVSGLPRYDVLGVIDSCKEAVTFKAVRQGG
# Test: holdup assay
# Parameters: key: below the threshold = too weak to quantify, mostly under pKd 3.1 to 4
# Settings: plain residues with an end cap or a label only (N-terminal biotin on a linker: ado-ado)
row,pKd,Binder
1,below the threshold,"SVISRREWYV [NECTIN3, Q9NQS3]"

# Biological target: LNX1_3, Q8TBB1
# Sequence (Q8TBB1 500-596): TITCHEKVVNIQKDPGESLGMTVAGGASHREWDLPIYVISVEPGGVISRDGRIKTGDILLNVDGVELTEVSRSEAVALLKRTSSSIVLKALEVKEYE
# Test: holdup assay
# Parameters: key: below the threshold = too weak to quantify, mostly under pKd 3.1 to 4
# Settings: plain residues with an end cap or a label only (N-terminal biotin on a linker: ado-ado)
row,pKd,Binder
1,4.81,"SVISRREWYV [NECTIN3, Q9NQS3]"

# Biological target: T2, LNX2_3, Q8N448
# Test: holdup assay
# Parameters: key: below the threshold = too weak to quantify, mostly under pKd 3.1 to 4
# Settings: plain residues with an end cap or a label only (N-terminal biotin on a linker: ado-ado)
row,pKd,Binder
1,below the threshold,"SVISRREWYV [NECTIN3, Q9NQS3]"

# Biological target: T3, LIN7A, O14910
# Test: holdup assay
# Parameters: key: below the threshold = too weak to quantify, mostly under pKd 3.1 to 4
# Settings: plain residues with an end cap or a label only (N-terminal biotin on a linker: ado-ado)
row,pKd,Binder
1,3.58,"SVISRREWYV [NECTIN3, Q9NQS3]"

# Biological target: GRASP, Q7Z6J2
# Sequence (Q7Z6J2 96-193): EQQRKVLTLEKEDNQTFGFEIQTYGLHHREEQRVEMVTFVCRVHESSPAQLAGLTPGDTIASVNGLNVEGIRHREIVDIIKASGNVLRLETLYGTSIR
# Test: holdup assay
# Parameters: key: below the threshold = too weak to quantify, mostly under pKd 3.1 to 4
# Settings: plain residues with an end cap or a label only (N-terminal biotin on a linker: ado-ado)
row,pKd,Binder
1,below the threshold,"SVISRREWYV [NECTIN3, Q9NQS3]"

# Biological target: GRIP2_4, Q9C0E4
# Sequence (Q9C0E4 446-548): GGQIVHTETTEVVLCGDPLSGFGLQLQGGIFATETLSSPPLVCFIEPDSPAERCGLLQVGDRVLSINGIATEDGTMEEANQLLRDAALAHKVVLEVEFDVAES
# Test: holdup assay
# Parameters: key: below the threshold = too weak to quantify, mostly under pKd 3.1 to 4
# Settings: plain residues with an end cap or a label only (N-terminal biotin on a linker: ado-ado)
row,pKd,Binder
1,below the threshold,"SVISRREWYV [NECTIN3, Q9NQS3]"

# Biological target: T4, MPDZ_12, O75970
# Test: holdup assay
# Parameters: key: below the threshold = too weak to quantify, mostly under pKd 3.1 to 4
# Settings: plain residues with an end cap or a label only (N-terminal biotin on a linker: ado-ado)
row,pKd,Binder
1,below the threshold,"SVISRREWYV [NECTIN3, Q9NQS3]"

# Biological target: SCRIB_1, Q14160
# Sequence (Q14160 718-814): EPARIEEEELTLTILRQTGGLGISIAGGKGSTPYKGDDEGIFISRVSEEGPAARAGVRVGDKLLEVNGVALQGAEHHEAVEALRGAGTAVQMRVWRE
# Test: holdup assay
# Parameters: key: below the threshold = too weak to quantify, mostly under pKd 3.1 to 4
# Settings: plain residues with an end cap or a label only (N-terminal biotin on a linker: ado-ado)
row,pKd,Binder
1,below the threshold,"SVISRREWYV [NECTIN3, Q9NQS3]"

# Biological target: T5, RAPGEF6, Q8TEU7
# Test: holdup assay
# Parameters: key: below the threshold = too weak to quantify, mostly under pKd 3.1 to 4
# Settings: plain residues with an end cap or a label only (N-terminal biotin on a linker: ado-ado)
row,pKd,Binder
1,below the threshold,"SVISRREWYV [NECTIN3, Q9NQS3]"

# Biological target: T6, CARD11, Q9BXL7
# Test: holdup assay
# Parameters: key: below the threshold = too weak to quantify, mostly under pKd 3.1 to 4
# Settings: plain residues with an end cap or a label only (N-terminal biotin on a linker: ado-ado)
row,pKd,Binder
1,below the threshold,"SVISRREWYV [NECTIN3, Q9NQS3]"

# Biological target: PARD3_3, Q8TEW0
# Sequence (Q8TEW0 582-685): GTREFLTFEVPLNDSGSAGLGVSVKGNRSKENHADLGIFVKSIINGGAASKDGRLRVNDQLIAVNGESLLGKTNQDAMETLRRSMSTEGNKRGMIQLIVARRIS
# Test: holdup assay
# Parameters: key: below the threshold = too weak to quantify, mostly under pKd 3.1 to 4
# Settings: plain residues with an end cap or a label only (N-terminal biotin on a linker: ado-ado)
row,pKd,Binder
1,4.75,"SVISRREWYV [NECTIN3, Q9NQS3]"

# Biological target: DLG4_3, P78352
# Sequence (P78352 306-403): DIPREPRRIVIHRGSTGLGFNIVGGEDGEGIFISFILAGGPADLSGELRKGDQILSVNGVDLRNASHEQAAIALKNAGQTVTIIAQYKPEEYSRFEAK
# Test: holdup assay
# Parameters: key: below the threshold = too weak to quantify, mostly under pKd 3.1 to 4
# Settings: plain residues with an end cap or a label only (N-terminal biotin on a linker: ado-ado)
row,pKd,Binder
1,3.84,"SVISRREWYV [NECTIN3, Q9NQS3]"

# Biological target: SNX27, Q96L92
# Test: holdup assay
# Parameters: key: below the threshold = too weak to quantify, mostly under pKd 3.1 to 4
# Settings: plain residues with an end cap or a label only (N-terminal biotin on a linker: ado-ado)
row,pKd,Binder
1,below the threshold,"SVISRREWYV [NECTIN3, Q9NQS3]"

# Biological target: TJP2_1, Q9UDY2
# Sequence (Q9UDY2 24-128): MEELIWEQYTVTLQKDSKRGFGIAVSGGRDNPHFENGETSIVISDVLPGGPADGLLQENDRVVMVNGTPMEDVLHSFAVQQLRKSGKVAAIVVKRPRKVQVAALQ
# Test: holdup assay
# Parameters: key: below the threshold = too weak to quantify, mostly under pKd 3.1 to 4
# Settings: plain residues with an end cap or a label only (N-terminal biotin on a linker: ado-ado)
row,pKd,Binder
1,4.63,"SVISRREWYV [NECTIN3, Q9NQS3]"

# Biological target: T7, NHERF3_4, Q5T2W1
# Test: holdup assay
# Parameters: key: below the threshold = too weak to quantify, mostly under pKd 3.1 to 4
# Settings: plain residues with an end cap or a label only (N-terminal biotin on a linker: ado-ado)
row,pKd,Binder
1,below the threshold,"SVISRREWYV [NECTIN3, Q9NQS3]"

# Biological target: Inadl_3, Q8NI35
# Sequence (Q8NI35 359-469): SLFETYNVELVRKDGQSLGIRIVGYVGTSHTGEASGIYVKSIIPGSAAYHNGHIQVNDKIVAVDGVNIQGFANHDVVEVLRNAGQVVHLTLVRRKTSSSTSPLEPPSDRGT
# Test: holdup assay
# Parameters: key: below the threshold = too weak to quantify, mostly under pKd 3.1 to 4
# Settings: plain residues with an end cap or a label only (N-terminal biotin on a linker: ado-ado)
row,pKd,Binder
1,5.03,"SVISRREWYV [NECTIN3, Q9NQS3]"

# Biological target: IL16_4, Q14005
# Sequence (Q14005 1229-1329): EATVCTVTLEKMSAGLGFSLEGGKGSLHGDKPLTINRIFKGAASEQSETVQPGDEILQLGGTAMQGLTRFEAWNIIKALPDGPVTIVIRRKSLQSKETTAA
# Test: holdup assay
# Parameters: key: below the threshold = too weak to quantify, mostly under pKd 3.1 to 4
# Settings: plain residues with an end cap or a label only (N-terminal biotin on a linker: ado-ado)
row,pKd,Binder
1,below the threshold,"SVISRREWYV [NECTIN3, Q9NQS3]"

# Biological target: HTRA2, O43464
# Sequence (O43464 355-458): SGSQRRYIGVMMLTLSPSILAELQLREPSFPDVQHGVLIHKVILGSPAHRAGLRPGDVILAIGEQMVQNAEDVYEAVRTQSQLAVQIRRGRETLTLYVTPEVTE
# Test: holdup assay
# Parameters: key: below the threshold = too weak to quantify, mostly under pKd 3.1 to 4
# Settings: plain residues with an end cap or a label only (N-terminal biotin on a linker: ado-ado)
row,pKd,Binder
1,4.6,"SVISRREWYV [NECTIN3, Q9NQS3]"

# Biological target: Inadl_9, Q8NI35
# Sequence (Q8NI35 1530-1615): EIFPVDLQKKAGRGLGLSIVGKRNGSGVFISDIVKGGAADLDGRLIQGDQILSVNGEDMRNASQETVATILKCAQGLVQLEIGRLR
# Test: holdup assay
# Parameters: key: below the threshold = too weak to quantify, mostly under pKd 3.1 to 4
# Settings: plain residues with an end cap or a label only (N-terminal biotin on a linker: ado-ado)
row,pKd,Binder
1,4.51,"SVISRREWYV [NECTIN3, Q9NQS3]"

# Biological target: LIMK2, P53671
# Sequence (P53671 143-248): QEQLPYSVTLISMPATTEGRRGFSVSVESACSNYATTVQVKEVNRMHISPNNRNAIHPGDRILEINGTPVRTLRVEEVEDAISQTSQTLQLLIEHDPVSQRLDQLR
# Test: holdup assay
# Parameters: key: below the threshold = too weak to quantify, mostly under pKd 3.1 to 4
# Settings: plain residues with an end cap or a label only (N-terminal biotin on a linker: ado-ado)
row,pKd,Binder
1,below the threshold,"SVISRREWYV [NECTIN3, Q9NQS3]"

# Biological target: T8, APBA1_2, Q02410
# Test: holdup assay
# Parameters: key: below the threshold = too weak to quantify, mostly under pKd 3.1 to 4
# Settings: plain residues with an end cap or a label only (N-terminal biotin on a linker: ado-ado)
row,pKd,Binder
1,3.85,"SVISRREWYV [NECTIN3, Q9NQS3]"

# Biological target: Inadl_8, Q8NI35
# Sequence (Q8NI35 1425-1530): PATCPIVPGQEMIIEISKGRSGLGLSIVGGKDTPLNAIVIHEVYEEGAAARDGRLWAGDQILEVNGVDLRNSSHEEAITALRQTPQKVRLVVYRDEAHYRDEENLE
# Test: holdup assay
# Parameters: key: below the threshold = too weak to quantify, mostly under pKd 3.1 to 4
# Settings: plain residues with an end cap or a label only (N-terminal biotin on a linker: ado-ado)
row,pKd,Binder
1,3.98,"SVISRREWYV [NECTIN3, Q9NQS3]"

# Biological target: NHERF2_2, Q15599
# Sequence (Q15599 142-238): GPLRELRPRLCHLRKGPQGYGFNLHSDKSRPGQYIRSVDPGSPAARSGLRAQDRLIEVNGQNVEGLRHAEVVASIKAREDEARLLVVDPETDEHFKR
# Test: holdup assay
# Parameters: key: below the threshold = too weak to quantify, mostly under pKd 3.1 to 4
# Settings: plain residues with an end cap or a label only (N-terminal biotin on a linker: ado-ado)
row,pKd,Binder
1,below the threshold,"SVISRREWYV [NECTIN3, Q9NQS3]"

# Biological target: T9, PDZD2_2, O15018
# Test: holdup assay
# Parameters: key: below the threshold = too weak to quantify, mostly under pKd 3.1 to 4
# Settings: plain residues with an end cap or a label only (N-terminal biotin on a linker: ado-ado)
row,pKd,Binder
1,5.08,"SVISRREWYV [NECTIN3, Q9NQS3]"
